For the assay, the target named is T1, CD33 on cord blood CD34+ cells (human, UniProt P20138 18-364).
T1 construct: whole, on cells; also called CD33 antigen
In words: flow cytometry on CD33-expressing cord blood CD34+ cells, detected with FITC anti-Myc antibody. Here is the method: The binding of the anti-CD33-ULBP1 chimera with CD33 antigen-expressing cord blood CD34+ cells or NKG2D-expressing primary NK cells was tested using flow cytometry. Briefly, primary NK cells were purified from peripheral blood of donors. CD34+ cells were purified from cord blood of donors. Purified cells were incubated with the elute from the mock, chimera 1 or chimera 2 proteins purified from the cell supernatant. The cells were also incubated with FITC-conjugated anti-Myc antibody and analyzed using a flow cytometer.
For orientation: In flow cytometry, cells or beads pass a laser one at a time.

T1 sequence (P20138 18-364): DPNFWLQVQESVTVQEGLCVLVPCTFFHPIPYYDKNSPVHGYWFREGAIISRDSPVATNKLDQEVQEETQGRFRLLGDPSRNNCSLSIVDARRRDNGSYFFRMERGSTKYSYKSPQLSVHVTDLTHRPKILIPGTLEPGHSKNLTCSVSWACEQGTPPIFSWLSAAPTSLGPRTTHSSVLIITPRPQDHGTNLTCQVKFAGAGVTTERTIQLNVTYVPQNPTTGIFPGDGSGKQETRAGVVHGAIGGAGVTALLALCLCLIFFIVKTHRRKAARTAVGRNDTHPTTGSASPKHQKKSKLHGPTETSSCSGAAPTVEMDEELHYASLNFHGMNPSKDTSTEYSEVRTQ

B1: anti-CD33-ULBP1 chimera 2 (CD33-ULBP1-2, with proline) (other)
chain: EIVLTQSPGSLAVSPGERVTMSCKSSQSVFFSSSQKNYLAWYQQIPGQSPRLLIYWASTRESGVPDRFTGSGSGTDFTLTISSVQPEDLAIYYCHQYLSSRTFGQGTKLEIKRGSTSGSGKPGSGEGSTKGQVQLQQPGAEVVKPGASVKMSCKASGYTFTSYYIHWIKQTPGQGLEWVGVIYPGNDDISYNQKFQGKATLTADKSSTTAYMQLSSLTSEDSAVYYCAREVRLRYFDVWGQGTTVTVSSSSSAGGGGSGGGGSGGGGSPWVDTHCLCYDFIITPKSRPEPQWCEVQGLVDERPFLHYDCVNHKAKAFASLGKKVNVTKTWEEQTETLRDVVDFLKGQLLDIQVENLIPIEPLTLQARMSCEHEAHGHGRGSWQFLFNGQKFLLFDSNNRKWTALHPGAKKMTEKWEKNRDVTMFFQKISLGDCKMWLEEFLMYWEQMLDPTKPPSLAPGEQKLISEEDLHHHHHH
notes: also called αCD33-ULBP1 chimera 2
B1: the binding result is “binds”.

B2: anti-CD33-ULBP1 chimera 1 (CD33-ULBP1-1) (other)
chain: EIVLTQSPGSLAVSPGERVTMSCKSSQSVFFSSSQKNYLAWYQQIPGQSPRLLIYWASTRESGVPDRFTGSGSGTDFTLTISSVQPEDLAIYYCHQYLSSRTFGQGTKLEIKRGSTSGSGKPGSGEGSTKGQVQLQQPGAEVVKPGASVKMSCKASGYTFTSYYIHWIKQTPGQGLEWVGVIYPGNDDISYNQKFQGKATLTADKSSTTAYMQLSSLTSEDSAVYYCAREVRLRYFDVWGQGTTVTVSSSSSAGGGGSGGGGSGGGGSWVDTHCLCYDFIITPKSRPEPQWCEVQGLVDERPFLHYDCVNHKAKAFASLGKKVNVTKTWEEQTETLRDVVDFLKGQLLDIQVENLIPIEPLTLQARMSCEHEAHGHGRGSWQFLFNGQKFLLFDSNNRKWTALHPGAKKMTEKWEKNRDVTMFFQKISLGDCKMWLEEFLMYWEQMLDPTKPPSLAPGEQKLISEEDLHHHHHH
notes: also called αCD33-ULBP1 chimera 1
Take B2: the binding result is given as “binds”.

(Values after patent publication US20210393685A1 (TRUSTEES OF COLUMBIA UNIVERSITY IN THE CITY OF NEW YORK, published 2021).)
